# Results from publication PMC8840930, “PSTPIP1-LYP phosphatase interaction: structural basis and implications for autoinflammatory disorders” (Cellular and Molecular Life Sciences: CMLS, 2022).
# Values joined by “and” are separate entries in the source; they are usually repeats but may differ in a detail not shown here. Equal values may be shown once. Ends that are not written are not given here.
# B1: F-BAR domain of PSTPIP1 (residues 1-289), wild type (domain or fragment)
# chain: not shown
# notes: PSTPIP1, human, UniProt O43586, region 1-289 (F-BAR domain); modified pET15b with TEV site; homodimer in the crystals; also called wild type F-BAR; F-BAR of PSTPIP1; not shown: poly-His, N-terminal, cleaved
# B2: fluorescein-LYP-CTH (peptide)
# peptide: fluorescein-GFANRFSKPKGPRNPPPTWNI
# notes: LYP (PTPN22), human, UniProt Q9Y2R2-1, region 787-807 (C-terminal homology segment, CTH); also called fluorescein-labeled LYP-CTH; synthetic peptide of the CTH of LYP (residues 787-807) labeled with fluorescein; source: synthetic peptide (custom synthesized, Thermo Scientific, Germany)
# What was measured:
# [1] = target: the molecule itself; experiment: crystal structure; F-BAR domain of PSTPIP1 (1-289) alone, G258A and wild type; space group P212121, two molecules in the asymmetric unit
# [2] = target: T1, F-BAR domain of PSTPIP1 (residues 1-289), wild type (human, UniProt O43586 1-289); experiment: ITC; unlabeled LYP-CTH peptide in the syringe, F-BAR of PSTPIP1 in the cell; 25 °C; 20 mM sodium phosphate (pH 7.5), 150 mM NaCl, 5% (v/v) DMSO; single set of identical sites model; three single experiments; conditions: both partners purified
# T1 construct: His tag cleaved with TEV protease; forms the F-BAR dimer in the crystal; also called PSTPIP1 F-BAR (1-289); F-BAR of PSTPIP1; not shown: poly-His, N-terminal, cleaved
# [3] = target: B2; experiment: fluorescence polarisation; fluorescence anisotropy under saturation conditions; fluorescein-LYP-CTH at 1 µM titrated with the F-BAR of PSTPIP1; stoichiometry from the intersection of asymptotes; conditions: both partners purified
# [4] = target: B2; experiment: fluorescence polarisation; fluorescence anisotropy; fluorescein-LYP-CTH (2 nM) titrated with the F-BAR of PSTPIP1; 20 mM Tris/HCl pH 7.5, 150 mM NaCl, 0.1 mg/mL BSA; 25 °C; apparent kd, one-to-one binding model; conditions: both partners purified
# [5] = target: B1; experiment: as above; conditions: both partners purified
# [6] = target: T2, F-BAR domain of PSTPIP1 (residues 1-289), A230T (human, UniProt O43586 1-289, A230T); experiment: as above; conditions: both partners purified
# T2 construct: PSTPIP1, human, UniProt O43586, region 1-289 (F-BAR domain), patient mutation A230T; also called A230T mutant; not shown: poly-His, N-terminal, cleaved
# T2 sequence (O43586 1-289 A230T): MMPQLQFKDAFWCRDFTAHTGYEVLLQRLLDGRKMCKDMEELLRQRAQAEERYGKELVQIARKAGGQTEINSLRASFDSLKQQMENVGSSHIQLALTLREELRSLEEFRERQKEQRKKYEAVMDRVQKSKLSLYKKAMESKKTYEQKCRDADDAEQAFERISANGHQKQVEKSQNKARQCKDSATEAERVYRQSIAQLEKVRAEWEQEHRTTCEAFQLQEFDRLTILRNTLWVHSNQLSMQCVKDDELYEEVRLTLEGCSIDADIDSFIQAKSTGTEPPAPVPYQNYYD
# [7] = target: B1; experiment: ITC; 25 °C; F-BAR of PSTPIP1 in the cell (26.2-30.6 µM), unlabeled LYP-CTH peptide in the syringe (146.8-155.2 µM); 20 mM sodium phosphate pH 7.5, 150 mM NaCl, 5% DMSO; single set of identical sites model; conditions: both partners purified
binder,measurement,setting,value
"F-BAR domain of PSTPIP1 (residues 1-289), G258A (domain or fragment, PSTPIP1, human, UniProt O43586, residues 1-289 (F-BAR domain), patient mutation G258A; homodimer in the crystal; also called G258A mutant; PSTPIP1-G258A; not shown: poly-His, N-terminal, cleaved) not shown",stoichiometry N,[1],2
"GFANRFSKPKGPRNPPPTWNI (lymphoid phosphatase LYP (PTPN22), human, C-terminal homology segment, region 787-807; also called LYP-CTH; source: synthetic peptide (Genosphere Biotechnologies)) [unlabeled peptide of the CTH of LYP (residues 787-807)]",Kd,[2],263 nM and 229 nM and 267 nM
same,stoichiometry N,[2],0.5 and 0.49 and 0.46
B1,binding result,[1],binds
same,stoichiometry N,[3],2 molecules of PSTPIP1 for each LYP-CTH
"F-BAR domain of PSTPIP1 (residues 1-289), E250Q (domain or fragment, PSTPIP1, human, UniProt O43586, region 1-289 (F-BAR domain), patient mutation E250Q; not shown: poly-His, N-terminal, cleaved) not shown",fold lower binding affinity than the wild type F-BAR,[4],~60 fold
B2,Kd,[5],~20 nM
same,Kd,[6],~20 nM
"F-BAR domain of PSTPIP1 (residues 1-289), W232A (domain or fragment, PSTPIP1, human, UniProt O43586, region 1-289 (F-BAR domain), W232A; not shown: poly-His, N-terminal, cleaved) not shown",fold lower binding affinity than the wild type F-BAR,[4],~60 fold
"GFANRFSKPKGPRNPPPTWNI (LYP (PTPN22), human, UniProt Q9Y2R2-1, region 787-807 (C-terminal homology segment, CTH); also called unlabeled LYP-CTH; peptide of the CTH of LYP; source: synthetic peptide (custom synthesized, Genosphere Biotechnologies, France)) [LYP-CTH peptide, unlabeled (residues 787-807)]",Kd,[7],253 nM
same,stoichiometry N,[7],0.48 molecules of LYP-CTH for each PSTPIP1
